According to patent US20090010911A1, “METHODS AND COMPOSITIONS FOR AFFECTING CYCLOPHILIN A REGULATION OF KINASES IN MODULATING CELLULAR ACTIVITIES” (IOWA STATE UNIVERSITY RESEARCH FOUNDATION, INC., priority 2007, published 2009):

Target: T1, Itk full-length enzyme (Mus musculus, UniProt Q03526)
T1 construct: Full-length Itk, Btk and Tec and the Itk kinase domain fragments were PCR amplified; made in house; host or cells: Sf9 insect cells (baculovirus), co-infected 1:1 with Lck baculovirus
T1 sequence (Q03526 1-625): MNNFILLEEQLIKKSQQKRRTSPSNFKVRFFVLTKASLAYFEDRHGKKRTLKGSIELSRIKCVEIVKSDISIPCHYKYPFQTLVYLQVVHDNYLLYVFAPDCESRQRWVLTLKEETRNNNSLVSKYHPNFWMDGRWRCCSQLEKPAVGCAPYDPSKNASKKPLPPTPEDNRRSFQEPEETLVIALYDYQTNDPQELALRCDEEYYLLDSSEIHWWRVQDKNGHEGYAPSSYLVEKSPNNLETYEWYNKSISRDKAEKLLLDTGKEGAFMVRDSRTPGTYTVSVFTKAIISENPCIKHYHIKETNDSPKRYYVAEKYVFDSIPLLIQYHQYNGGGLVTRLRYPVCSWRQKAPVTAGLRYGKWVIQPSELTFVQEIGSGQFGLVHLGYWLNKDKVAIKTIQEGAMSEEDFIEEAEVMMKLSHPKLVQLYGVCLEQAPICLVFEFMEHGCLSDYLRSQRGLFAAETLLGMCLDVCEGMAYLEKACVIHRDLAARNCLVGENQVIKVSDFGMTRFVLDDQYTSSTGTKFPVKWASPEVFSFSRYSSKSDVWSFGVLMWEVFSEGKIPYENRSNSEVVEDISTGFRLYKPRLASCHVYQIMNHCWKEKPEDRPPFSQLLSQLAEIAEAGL
Experiment: In vitro kinase assay with western blotting, phosphorylation of SH2 domain-containing substrates with added free SH2 domain or CypA
Format: biochemical
Experimental: Substrate used in each experiment is indicated above each set of blots. 4(a) (left) Itk 32 substrate was incubated with Itk full-length enzyme as before (lane 1), or with Itk 32 domain:free Itk SH2 domain in ratios of 1:10, 1:25 or 1:50 (lanes 2-4, respectively) or equivalent ratios of PI3K N-terminal SH2 domain (lanes 5-7) and subjected to an in vitro kinase assay. […] Coomassie stain and an anti-FLAG blot (bottom panels) show protein levels. (right) The PLCγ1 SH2 domain competes with the PLCγ1 substrate in a similar manner. Lane 1 contains only Itk enzyme and PLCγ1 SH2C-Y783-substrate without additional free SH2 domain. Ratios of free SH2 domain to substrate are 1:5, 1:10 or 1:50 in lanes 2-4, respectively and equivalent ratios of PI3K SH2 domain are used in lanes 5-7. Coomassie stain of the gel and an anti-Itk blot (bottom panels) show protein levels. 4(b) Same experiment as shown in (a) using the Grb2 SH2 domain as a control. (left) Itk 32 substrate was incubated with Itk full-length enzyme (lane 1), or with Itk 32 domain:free Itk SH2 domain in ratios of 1:10 and 1:25 (lanes 2 & 3) or equivalent ratios of Grb2 SH2 domain (lanes 4 & 5) and subjected to an in vitro kinase assay. (right) Identical experiment following PLCγ1 substrate phosphorylation in the presence of the PLCγ1 and Grb2 SH2 domains. Lane 1 is PLCγ1 substrate alone; lanes 2 & 3 are PLCγ1 substrate:PLCγ1 SH2 domain in a 1:10 and 1:25 ratio, respectively and lanes 4 & 5 are identical ratios of PLCγ1 substrate:Grb2 SH2 domain. 4(c) The Itk SH2 domain competes with autophosphorylation of Y180 within full length Itk. For lanes 2-4, the amount of free SH2 domain is the same as used in panel (a), lanes 2-4. No exogenous SH2 domain has been added in lane 1 and full length Itk is both the enzyme and the substrate. Coomassie stain and an anti-FLAG blot (bottom panels) show protein levels. […] Initial velocities are shown for phosphorylation of peptide B (sequence shown in FIG. 5a) by full length Itk in the absence (column 1) and presence (column 2 and 3) of Itk SH2 domain. […]

B1: Itk SH2 domain: isolated exogenous SH2 domain of Itk, purified from bacteria (protein)
chain: EWYNKSISRDKAEKLLLDTGKEGAFMVRDSRTPGTYTVSVFTKAIISENPCIKHYHIKETNDSPKRYYVAEKYVFDSIPLLIQYHQYNGGGLVTRLRYPVCSWRQKA
autophosphorylation of Tyr 180 within full length Itk upon addition of free SH2 domain (full length Itk is both enzyme and substrate): greatly diminished | inhibition of Itk 32 substrate phosphorylation (Y180) by free SH2 domain (substrate:free SH2 domain ratios 1:10, 1:25, 1:50): inhibits substrate phosphorylation

B2: PLCγ1 SH2C domain: isolated carboxy-terminal SH2 domain of PLCγ1 (protein)
chain: QTNAHESKEWYHASLTRAQAEHMLMRVPRDGAFLVRKRNEPNSYAISFRAEGKIKHCRVQQEGQTVMLGNSEFDSLVDLISYYEKHPLYRKMKLRYPI
inhibition of PLCγ1 SH2C-Y783- substrate phosphorylation by free SH2 domain (substrate:free SH2 domain ratios 1:5 to 1:50): inhibits substrate phosphorylation
